{
  "source": "patent US20240209086A1",
  "about": "(PETMEDIX, published 2024)",
  "data": [
    {"biological_target": "canine CD3 on canine T cells (canine PBMC) (canine, UniProt P27597 22-202)", "sequence (P27597 22-202 limits assumed, chain 1 of 3)": "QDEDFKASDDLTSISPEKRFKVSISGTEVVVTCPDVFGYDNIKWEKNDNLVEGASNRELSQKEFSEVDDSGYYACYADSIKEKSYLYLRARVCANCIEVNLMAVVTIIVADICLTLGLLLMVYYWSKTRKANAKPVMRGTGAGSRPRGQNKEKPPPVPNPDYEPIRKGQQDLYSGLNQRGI", "sequence (chain, as listed by the source limits assumed, chain 2 of 3)": "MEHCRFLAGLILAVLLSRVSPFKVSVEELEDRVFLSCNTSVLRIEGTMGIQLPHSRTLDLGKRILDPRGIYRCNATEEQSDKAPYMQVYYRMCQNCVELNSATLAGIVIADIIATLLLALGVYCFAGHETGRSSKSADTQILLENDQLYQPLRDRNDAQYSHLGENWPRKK", "sequence (chain, as listed by the source limits assumed, chain 3 of 3)": "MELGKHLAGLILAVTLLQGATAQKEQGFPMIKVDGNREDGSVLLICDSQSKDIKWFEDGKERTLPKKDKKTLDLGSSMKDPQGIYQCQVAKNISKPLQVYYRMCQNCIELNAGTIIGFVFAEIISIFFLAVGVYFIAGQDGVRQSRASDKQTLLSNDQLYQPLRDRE", "test": "cell-based or functional assay", "units": {"IFNy Concentration pg/ml, Day 6, IS": "pg/mL", "IFNy Concentration pg/ml, Day 9, IS": "pg/mL", "IFNy Concentration pg/ml, Day 9, PB": "pg/mL"}, "values": [
      {"binder": "PMX194 (monospecific anti-canine CD3, canine IgG-B effector function deficient Fc) (antibody, V domains shown) VH: EVQLVESGGDLVKPGGSLRLSCVASGFTFSNYHMSWVRQAPGKGLQWVAYSNSGRMSTDYADAVKGRFTISRDNAKNTLYLQMNSLRPEDTAVYYCATVIYGLFDYWGQGTLVTVSS VL: DIVMTQTPLSLSVSPGEPASISCKASQSLLYSNGNTYLYWFRQKPGQSPQRLIYKVSKRDSGVPDRFSGSGSGTDFTLRIRRVEADDAGVYYCGQGTQDPYTFSQGTKLEIK", "CD25 Activation, Day 6, IS": 13, "CD25 Activation, Day 6, PB": 17.3, "CD25 Activation, Day 9, IS": 7.96, "CD25 Activation, Day 9, PB": 17.1, "IFNy Concentration pg/ml, Day 6, IS": 133, "IFNy Concentration pg/ml, Day 9, IS": 170, "IFNy Concentration pg/ml, Day 9, PB": 568, "Ki67 Proliferation, Day 6, IS": 1.46, "Ki67 Proliferation, Day 6, PB": 0.21, "Ki67 Proliferation, Day 9, IS": 1.49, "Ki67 Proliferation, Day 9, PB": 1.11},
      {"binder": "PMX195 (monospecific anti-canine CD3, canine IgG-B effector function deficient Fc) (antibody, V domains shown) VH: EVQLVESGGDLVKPAGSLRLSCMASGFTFSSYSMSWVRQAPEKGLQLVAGINGDGSTTYYTDAVKGRFTISRDNAKNTVYLQMNNLRVEDSAMYYCAKGAGTGDYWGQGTLVTVSS VL: SYELTQPPSLNVTLRETAHITCGGDRIGSRYVQWIQQNPGQAPVVVIYKDSNRPTGIPERFSGANSGNTATLTISGALAEDEADYYCQVGDSGNWVFGGGTQLTVL", "CD25 Activation, Day 6, IS": 10.4, "CD25 Activation, Day 6, PB": 16.8, "CD25 Activation, Day 9, IS": 7.58, "CD25 Activation, Day 9, PB": 14.7, "IFNy Concentration pg/ml, Day 6, IS": 63.9, "IFNy Concentration pg/ml, Day 9, IS": 208, "IFNy Concentration pg/ml, Day 9, PB": 627, "Ki67 Proliferation, Day 6, IS": 2.94, "Ki67 Proliferation, Day 6, PB": 0.43, "Ki67 Proliferation, Day 9, IS": 2.33, "Ki67 Proliferation, Day 9, PB": 0.67},
      {"binder": "PMX182 (monospecific anti-canine CD3, canine IgG-B effector function deficient Fc) (antibody) heavy: EVQLVESGGDLVKPGGSLRLSCVTSGFTFSNYHMNWVRQAPGKGLQWVAYINSGGSSTSYADAVKGRFTISRDNAKNTLYLQMNSLRAEDTAMYYCASDWDYCADDTCEGMGYWGHGTSLFVSSASTTAPSVFPLAPSCGSTSGSTVALACLVSGYFPEPVTVSWNSGSLTSGVHTFPSVLQSSGLYSLSSMVTVPSSRWPSETFTCNVAHPASKTKVDKPVPKRENGRVPRPPDCPKCPAPESLGGPSVFIFPPKPKDTLLIARTPEVTCVVVDLGREDPEVQISWFVDGKQMQTAKTQPREEQFNGTYRVVSVLPIGHQDWLKGKQFTCKVNHIGLPSPIERTISKARGQAHQPSVYVLPPSREELSKNTVSLTCLIKDFFPPDIDVEWQSNGQQEPESKYRTTPPQLDEDGSYFLYSKLSVDKSRWQRGDTFICAVMHEALHNHYTQKSLSHSPGK VL: SYVLTQLPSKNVTLKQPAHITCGGDNIGSKSVHWYQQKLGQAPVLIIYYDSSRPTGIPERFSGANSGNTATLTISGALAEDEADYYCQVWDSSAKAWVFGEGTQLTVL", "CD25 Activation, Day 6, IS": 7.88, "CD25 Activation, Day 6, PB": 5.89, "CD25 Activation, Day 9, IS": 14.6, "CD25 Activation, Day 9, PB": 21.4, "IFNy Concentration pg/ml, Day 6, IS": 50.2, "IFNy Concentration pg/ml, Day 9, IS": 1340, "IFNy Concentration pg/ml, Day 9, PB": 1470, "Ki67 Proliferation, Day 6, IS": 2.01, "Ki67 Proliferation, Day 6, PB": 0.7, "Ki67 Proliferation, Day 9, IS": 1.72, "Ki67 Proliferation, Day 9, PB": 1.55},
      {"binder": "PMX184 (monospecific anti-canine CD3, canine IgG-B effector function deficient Fc) (antibody, V domains shown) VH: ELTLQESGPGLVKPSQTLSLTCGVSGGSVTRSHYWNWVRQRPGRGLEWMGYWTGSTNYNPAFQGRISITADTAKNQFSLQLRSMTTEDTAVYFCARETTIPTFFFDYWGQGTLVTVSS VL: SYVLTQLPSKNVTLKQPAHITCGGDNIGSKSVHWYQQKLGQAPVLIIYYDSSRPTGIPERFSGANSGNTATLTISGALAEDEADYYCQVWDSGAKAWVFGEGTQLTVL", "CD25 Activation, Day 6, IS": 10.4, "CD25 Activation, Day 6, PB": 28.8, "CD25 Activation, Day 9, IS": 12.3, "CD25 Activation, Day 9, PB": 28.2, "IFNy Concentration pg/ml, Day 6, IS": 74.8, "IFNy Concentration pg/ml, Day 9, IS": 322, "IFNy Concentration pg/ml, Day 9, PB": 3290, "Ki67 Proliferation, Day 6, IS": 2.42, "Ki67 Proliferation, Day 6, PB": 1.47, "Ki67 Proliferation, Day 9, IS": 1.64, "Ki67 Proliferation, Day 9, PB": 0.75},
      {"binder": "PMX183 (monospecific anti-canine CD3, canine IgG-B effector function deficient Fc) (antibody, V domains shown) VH: ELTLQESGPGLVKPSQTLSLTCVVSGGSVTNSYYWNWIRQRPGRELEWMGYWTGGTKYNPAFQGRISISADTAKNQFSLQLTSMTTEDTAVYYCARDRDRRVPHAYGYWGQGTLVTVSS VL: SYVLTQLPSKNVTLKQPAHITCGGDNIGSKSVHWYQQKLGQAPVLIIYYDSSRPTGIPERFSGANSGNTATLTISGALAEDEADYYCQVWDSSAKASVFGGGTHLTVL", "CD25 Activation, Day 6, IS": 13.3, "CD25 Activation, Day 6, PB": 13.6, "CD25 Activation, Day 9, IS": 10.1, "CD25 Activation, Day 9, PB": 13.3, "IFNy Concentration pg/ml, Day 6, IS": 63.7, "IFNy Concentration pg/ml, Day 9, IS": 153, "IFNy Concentration pg/ml, Day 9, PB": 145, "Ki67 Proliferation, Day 6, IS": 1.61, "Ki67 Proliferation, Day 6, PB": 0.36, "Ki67 Proliferation, Day 9, IS": 1.99, "Ki67 Proliferation, Day 9, PB": 0.48},
      {"binder": "PMX196 (monospecific anti-canine CD3, canine IgG-B effector function deficient Fc) (antibody, V domains shown) VH: ELTLQESGPGLVKPSQTLSLTCVVSGGSVTSSYYWNWIRQRPGRGLEWMGYWTGSTIYNPAFQGRISITADTAKNQFSLQLSSMTTEDTAVYFCVRERRMAFGSWGQGTLVIVSS VL: SYVLTQLPSKSVTLKQPAHITCGGDNIGRKSVHWYQQKLGQAPVLIISFDNNRPTGIPERFSGANSGNTATLTISGALAEDEADYYCQVWDSSAKASVFGGGTHLTVL", "CD25 Activation, Day 6, IS": 10.4, "CD25 Activation, Day 6, PB": 23, "CD25 Activation, Day 9, IS": 6.6, "CD25 Activation, Day 9, PB": 17.1, "IFNy Concentration pg/ml, Day 6, IS": 34.8, "IFNy Concentration pg/ml, Day 9, IS": 160, "IFNy Concentration pg/ml, Day 9, PB": 2080, "Ki67 Proliferation, Day 6, IS": 0.92, "Ki67 Proliferation, Day 6, PB": 1.41, "Ki67 Proliferation, Day 9, IS": 0.94, "Ki67 Proliferation, Day 9, PB": 0},
      {"binder": "PMX198 (monospecific anti-canine CD3, canine IgG-B effector function deficient Fc) (antibody, V domains shown) VH: EFTLQESGPGLVKPSQTLSLTCIVSGGSVTSSYYWNWIRQRPGRGLEWMGYWTGSTNYNPAFQGRISITPDTAKNQFSLQLSSMTTEDTAVYYCAREGGSSLQAFGNWGQGTLVTVSS VL: SYVLTQLPSKNVTLKQPAHITCGGDNIGRKSVHWYQQKLGQAPILIIYYDSSRPTGIPERFSGANSGNTATLTISGALAEDEADYYCQVWDSSAKASVFGGGTHLTVL", "CD25 Activation, Day 6, IS": 11.3, "CD25 Activation, Day 6, PB": 26.8, "CD25 Activation, Day 9, IS": 10.4, "CD25 Activation, Day 9, PB": 25.5, "IFNy Concentration pg/ml, Day 6, IS": 82.8, "IFNy Concentration pg/ml, Day 9, IS": 191, "IFNy Concentration pg/ml, Day 9, PB": 2790, "Ki67 Proliferation, Day 6, IS": 0.87, "Ki67 Proliferation, Day 6, PB": 0.61, "Ki67 Proliferation, Day 9, IS": 4.37, "Ki67 Proliferation, Day 9, PB": 0},
      {"binder": "PMX197 (monospecific anti-canine CD3, canine IgG-B effector function deficient Fc) (antibody, V domains shown) VH: ELTLQESGPGLVKPSQTLSLTCLVSGGSVTRSYYWNWIRQRPGRGLEWMGYWTGSTNYNPAFQGRISIIPDTAKNQFSLQLTSMTTDDTAIYFCAREGGRTLGAFADWGQGTLVTVSS VL: SYVLTQLPSKNVTLKQPAHITCGGDKIGSKNVHWYQQKLGQAPVLIIYYDSSRPTGIPERFSGANSGNTATLTISGALAEDEADYYCQVWDSSAKASVFGGGTHLTVL", "CD25 Activation, Day 6, IS": 10.5, "CD25 Activation, Day 6, PB": 23.3, "CD25 Activation, Day 9, IS": 9.24, "CD25 Activation, Day 9, PB": 14, "IFNy Concentration pg/ml, Day 6, IS": 58, "IFNy Concentration pg/ml, Day 9, IS": 307, "IFNy Concentration pg/ml, Day 9, PB": 2340, "Ki67 Proliferation, Day 6, IS": 1.43, "Ki67 Proliferation, Day 6, PB": 0.67, "Ki67 Proliferation, Day 9, IS": 3.21, "Ki67 Proliferation, Day 9, PB": 0},
      {"binder": "PMX193 (monospecific anti-canine CD3, canine IgG-B effector function deficient Fc) (antibody, V domains shown) VH: EVQLVESGGDLVKPGGSLRLSCVASGFTFSTYHMSWVRQAPGKGLQWVAYISSGGSRTNYADAVKGRFTISRDNAKNTLYLQMNSLRAEDAAVFYCARHYGSSLFDYWGQGTLVTVSS VL: DIVMTQTPLSLSVSPGEPASISCKASQSLLHINGNTYLYWFRQKPGQSPQRLIYKVSNRDPGVPDRFSGSGSGTDFTLRISRVEADDAGVYYCGQGIQDPTFGKGTHLEIK", "CD25 Activation, Day 6, IS": 8.3, "CD25 Activation, Day 6, PB": 11.1, "CD25 Activation, Day 9, IS": 12.6, "CD25 Activation, Day 9, PB": 16.1, "IFNy Concentration pg/ml, Day 6, IS": 52.6, "IFNy Concentration pg/ml, Day 9, IS": 544, "IFNy Concentration pg/ml, Day 9, PB": 401, "Ki67 Proliferation, Day 6, IS": 0.64, "Ki67 Proliferation, Day 6, PB": 0.11, "Ki67 Proliferation, Day 9, IS": 1.53, "Ki67 Proliferation, Day 9, PB": 0.18}
    ]}
  ]
}
